Consider one substance from patent US20170112904A1.

Some results are limits rather than exact numbers.

What all share (experiment): cell-based or functional assay
Assay [1] deals with human Glucagon-Like Peptide-1 receptor (human) (UniProt P43220).
Assay [2] deals with T1, human glucose-dependent insulinotropic polypeptide receptor (human) (UniProt P48546).
T1 sequence (looked up): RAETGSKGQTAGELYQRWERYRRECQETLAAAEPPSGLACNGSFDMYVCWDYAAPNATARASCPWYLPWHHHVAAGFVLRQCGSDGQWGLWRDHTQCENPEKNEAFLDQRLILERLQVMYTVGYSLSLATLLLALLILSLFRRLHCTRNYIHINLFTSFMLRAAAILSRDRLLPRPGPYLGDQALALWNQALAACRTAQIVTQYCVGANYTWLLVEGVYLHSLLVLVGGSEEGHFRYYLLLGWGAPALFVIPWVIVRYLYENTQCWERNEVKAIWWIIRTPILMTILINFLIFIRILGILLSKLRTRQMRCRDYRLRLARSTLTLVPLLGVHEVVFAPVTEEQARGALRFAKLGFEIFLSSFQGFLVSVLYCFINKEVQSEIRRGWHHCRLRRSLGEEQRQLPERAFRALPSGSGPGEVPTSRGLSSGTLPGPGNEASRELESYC

In assay [3] the target is recombinant human glucagon receptor (human) (UniProt P47871).
Sequence of recombinant human glucagon receptor (human) (P47871 26-477): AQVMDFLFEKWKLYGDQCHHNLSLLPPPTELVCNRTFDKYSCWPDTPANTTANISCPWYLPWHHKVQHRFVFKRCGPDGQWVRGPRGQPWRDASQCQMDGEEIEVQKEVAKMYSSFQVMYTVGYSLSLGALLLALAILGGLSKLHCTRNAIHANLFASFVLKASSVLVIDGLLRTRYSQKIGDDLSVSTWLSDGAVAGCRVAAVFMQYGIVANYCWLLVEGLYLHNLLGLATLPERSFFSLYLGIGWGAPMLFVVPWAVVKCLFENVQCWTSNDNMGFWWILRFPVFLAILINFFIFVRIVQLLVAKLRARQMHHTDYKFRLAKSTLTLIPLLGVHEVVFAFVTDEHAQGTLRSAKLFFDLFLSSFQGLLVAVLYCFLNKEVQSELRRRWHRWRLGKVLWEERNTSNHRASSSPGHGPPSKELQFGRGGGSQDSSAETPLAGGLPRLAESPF

Sequence of dulaglutide (Fc fusion) (chain): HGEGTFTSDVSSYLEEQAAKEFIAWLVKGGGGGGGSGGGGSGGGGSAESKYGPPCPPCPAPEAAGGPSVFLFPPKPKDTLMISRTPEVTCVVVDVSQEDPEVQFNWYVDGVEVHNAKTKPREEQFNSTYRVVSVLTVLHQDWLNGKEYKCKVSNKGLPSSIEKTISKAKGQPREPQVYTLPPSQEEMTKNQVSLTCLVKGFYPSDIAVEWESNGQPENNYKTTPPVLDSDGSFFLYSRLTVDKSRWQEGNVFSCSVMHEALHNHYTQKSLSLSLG
Sequence of human Glucagon-Like Peptide-1 receptor (human) (P43220 24-463): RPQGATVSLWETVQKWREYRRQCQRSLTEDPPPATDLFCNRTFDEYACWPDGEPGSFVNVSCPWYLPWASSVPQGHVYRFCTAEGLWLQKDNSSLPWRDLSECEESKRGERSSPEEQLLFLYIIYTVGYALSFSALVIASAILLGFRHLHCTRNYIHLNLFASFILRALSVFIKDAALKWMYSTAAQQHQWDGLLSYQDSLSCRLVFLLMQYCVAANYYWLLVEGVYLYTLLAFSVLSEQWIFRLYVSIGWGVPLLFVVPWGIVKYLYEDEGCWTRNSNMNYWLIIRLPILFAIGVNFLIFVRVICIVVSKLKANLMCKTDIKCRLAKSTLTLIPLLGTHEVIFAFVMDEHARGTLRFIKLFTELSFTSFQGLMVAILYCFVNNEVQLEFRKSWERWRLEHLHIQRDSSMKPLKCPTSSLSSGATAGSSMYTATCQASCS

In assay [1], dulaglutide (Fc fusion) came in with an EC50, GLP-1 Receptor Assay; sample C6.5-4 C.-4 wk of 0.00037 µM; an EC50, GLP-1 Receptor Assay; sample C6.5-40 C.-4 wk of 0.00031 µM; an EC50, GLP-1 Receptor Assay; sample C6.5MT-4 C.-4 wk of 0.0004 µM; an EC50, GLP-1 Receptor Assay; sample C6.5MT-40 C.-4 wk of 0.00029 µM. In assay [2], the EC50, GIP Receptor Assay; sample C6.5-4 C.-4 wk is more than 0.1 µM; the EC50, GIP Receptor Assay; sample C6.5-40 C.-4 wk is more than 0.1 µM; the EC50, GIP Receptor Assay; sample C6.5MT-4 C.-4 wk is more than 0.1 µM; the EC50, GIP Receptor Assay; sample C6.5MT-40 C.-4 wk is more than 0.1 µM. Also, in assay [3], the EC50, Gcg Receptor Assay; sample C6.5-4 C.-4 wk came out at 0.0519 µM; the EC50, Gcg Receptor Assay; sample C6.5-40 C.-4 wk was more than 0.1 µM; the EC50, Gcg Receptor Assay; sample C6.5MT-4 C.-4 wk was determined as 0.054 µM; the EC50, Gcg Receptor Assay; sample C6.5MT-40 C.-4 wk was more than 0.1 µM.
